The chains are these.
B3: hexon of wild-type human adenovirus type 5 (on virions) (natural protein)
chain: ATPSMMPQWSYMHISGQDASEYLSPGLVQFARATETYFSLNNKFRNPTVAPTHDVTTDRSQRLTLRFIPVDREDTAYSYKARFTLAVGDNRVLDMASTYFDIRGVLDRGPTFKPYSGTAYNALAPKGAPNPCEWDEAATALEINLEEEDDDNEDEVDEQAEQQKTHVFGQAPYSGINITKEGIQIGVEGQTPKYADKTFQPEPQIGESQWYETEINHAAGRVLKKTTPMKPCYGSYAKPTNENGGQGILVKQQNGKLESQVEMQFFSTTEATAGNGDNLTPKVVLYSEDVDIETPDTHISYMPTIKEGNSRELMGQQSMPNRPNYIAFRDNFIGLMYYNSTGNMGVLAGQASQLNAVVDLQDRNTELSYQLLLDSIGDRTRYFSMWNQAVDSYDPDVRIIENHGTEDELPNYCFPLGGVINTETLTKVKPKTGQENGWEKDATEFSDKNEIRVGNNFAMEINLNANLWRNFLYSNIALYLPDKLKYSPSNVKISDNPNTYDYMNKRVVAPGLVDCYINLGARWSLDYMDNVNPFNHHRNAGLRYRSMLLGNGRYVPFHIQVPQKFFAIKNLLLLPGSYTYEWNFRKDVNMVLQSSLGNDLRVDGASIKFDSICLYATFFPMAHNTASTLEAMLRNDTNDQSFNDYLSAANMLYPIPANATNVPISIPSRNWAAFRGWAFTRLKTKETPSLGSGYDPYYTYSGSIPYLDGTFYLNHTFKKVAITFDSSVSWPGNDRLLTPNEFEIKRSVDGEGYNVAQCNMTKDWFLVQMLANYNIGYQGFYIPESYKDRMYSFFRNFQPMSRQVVDDTKYKDYQQVGILHQHNNSGFVGYLAPTMREGQAYPANFPYPLIGKTAVDSITQKKFLCDRTLWRIPFSSNFMSMGALTDLGQNLLYANSAHALDMTFEVDPMDEPTLLYVLFEVFDVVRVHRPHRGVIETVYLRTPFSAGNATT
notes: hexon of human adenovirus type 5 (species C), whole hexon as it stands in the capsid of the virion; Immobilised as whole virions; also called Ad5; source: wild-type virus from ATCC, grown on 293 cells, virions purified by CsCl ultracentrifugation
B6: hexon of wild-type human adenovirus type 2 (on virions) (natural protein)
chain: MATPSMMPQWSYMHISGQDASEYLSPGLVQFARATETYFSLNNKFRNPTVAPTHDVTTDRSQRLTLRFIPVDREDTAYSYKARFTLAVGDNRVLDMASTYFDIRGVLDRGPTFKPYSGTAYNALAPKGAPNSCEWEQTEDSGRAVAEDEEEEDEDEEEEEEEQNARDQATKKTHVYAQAPLSGETITKSGLQIGSDNAETQAKPVYADPSYQPEPQIGESQWNEADANAAGGRVLKKTTPMKPCYGSYARPTNPFGGQSVLVPDEKGVPLPKVDLQFFSNTTSLNDRQGNATKPKVVLYSEDVNMETPDTHLSYKPGKGDENSKAMLGQQSMPNRPNYIAFRDNFIGLMYYNSTGNMGVLAGQASQLNAVVDLQDRNTELSYQLLLDSIGDRTRYFSMWNQAVDSYDPDVRIIENHGTEDELPNYCFPLGGIGVTDTYQAIKANGNGSGDNGDTTWTKDETFATRNEIGVGNNFAMEINLNANLWRNFLYSNIALYLPDKLKYNPTNVEISDNPNTYDYMNKRVVAPGLVDCYINLGARWSLDYMDNVNPFNHHRNAGLRYRSMLLGNGRYVPFHIQVPQKFFAIKNLLLLPGSYTYEWNFRKDVNMVLQSSLGNDLRVDGASIKFDSICLYATFFPMAHNTASTLEAMLRNDTNDQSFNDYLSAANMLYPIPANATNVPISIPSRNWAAFRGWAFTRLKTKETPSLGSGYDPYYTYSGSIPYLDGTFYLNHTFKKVAITFDSSVSWPGNDRLLTPNEFEIKRSVDGEGYNVAQCNMTKDWFLVQMLANYNIGYQGFYIPESYKDRMYSFFRNFQPMSRQVVDDTKYKEYQQVGILHQHNNSGFVGYLAPTMREGQAYPANVPYPLIGKTAVDSITQKKFLCDRTLWRIPFSSNFMSMGALTDLGQNLLYANSAHALDMTFEVDPMDEPTLLYVLFEVFDVVRVHQPHRGVIETVYLRTPFSAGNATT
notes: hexon of human adenovirus type 2 (species C), whole hexon as it stands in the capsid of the virion; Immobilised as whole virions; also called Ad2; source: wild-type virus from ATCC, grown on 293 cells, virions purified by CsCl ultracentrifugation

Holding throughout (conditions): both partners purified
Experiment [1] addresses B6. Kind of experiment: SPR; Biacore T200; about 300 to 5,000 RU of Ad virions immobilised on a CM5 chip, coagulation factors flowed over at four concentrations, 50 uL/min; running buffer 10 mM HEPES, 150 mM NaCl, 1 mM CaCl2, 0.5 mM MgCl2, 0.1% BSA, 0.05% polysorbate 20, pH 7.4; regeneration with 3 mM EDTA; global fit to a 1:1 kinetic interaction model, double referencing. In general terms: In SPR one partner is held on a chip, and binding of the other changes the refractive index at the surface.

The target of experiment [2] is B3. The description is as above.
Experiment [3] deals with T1, hexon of the E1/E3-deleted Ad5 vector Ad5.0 (wild-type Ad5 capsid, on virions) (human adenovirus 5, UniProt P04133 2-952).
T1 construct: hexon of human adenovirus type 5, unchanged, as it stands in the capsid of the vector; Immobilised as whole vector virions; source: E1/E3-deleted Ad5 vector grown on 293 cells, virions purified by CsCl ultracentrifugation
Described as above.

The target of experiment [4] is T2, human prothrombin (coagulation factor II) (human, UniProt P00734 44-622, γ-carboxylated glutamate residues in the Gla domain (positions not given)).
T2 construct: prothrombin (FII), human, plasma-derived; also called Human FII; FII; source: bought: Haematologic Technologies, Inc. (HCP-0010), plasma-derived; dialyzed
Kind of experiment: SPR; Biacore T200; about 300 to 5,000 RU of Ad virions immobilised on a CM5 chip, coagulation factors flowed over at four concentrations, 50 uL/min; 10 mM HEPES, 150 mM NaCl, 1 mM CaCl2, 0.5 mM MgCl2, 0.1% BSA, 0.05% polysorbate 20, pH 7.4; global fit to a 1:1 kinetic interaction model, double referencing.

For experiment [5], the target named is T3, human prothrombin (coagulation factor II) (human, UniProt P00734 44-622, gamma-carboxylated glutamate residues in the Gla domain).
T3 construct: prothrombin (FII), human, plasma-derived; also called human FII; FII; source: bought: Haematologic Technologies, Inc. (HCP-0010), plasma-derived
Kind of experiment: SPR; Biacore T200; about 300 to 5,000 RU of Ad virions immobilised on a CM5 chip, coagulation factors flowed over at four concentrations, 50 uL/min; running buffer 10 mM HEPES, 150 mM NaCl, 1 mM CaCl2, 0.5 mM MgCl2, 0.1% BSA, 0.05% polysorbate 20, pH 7.4; regeneration with 3 mM EDTA; global fit to a 1:1 kinetic interaction model, double referencing.

B1: mouse coagulation factor X (natural protein)
chain: ANSFFEEFKKGNLERECMEEICSYEEVREIFEDDEKTKEYWTKYKDGDQCESSPCQNQGACRDGIGGYTCTCSEGFEGKNCELFVRKLCRLDNGDCDQFCREEQNSVVCSCASGYFLGNDGKSCISTAPFPCGKITTGRRKRSVALNTSDSELDLEDALLDEDFLSPTENPIELLNLNETQPERSSDDLVRIVGGRECKDGECPWQALLINEDNEGFCGGTILNEFYILTAAHCLHQARRFKVRVGDRNTEKEEGNEMVHEVDVVIKHNKFQRDTYDYDIAVLRLKTPITFRMNVAPACLPQKDWAESTLMTQKTGIVSGFGRTHEKGRQSNILKMLEVPYVDRNTCKLSTSFSITQNMFCAGYEAKLEDACQGDSGGPHVTRFKNTYYVTGIVSWGEGCARKGKYGIYTKVTTFLKWIDRSMKARVGPTAETPRTAGPPN
modifications: gamma-carboxylated glutamate residues in the Gla domain
notes: coagulation factor X, mouse, plasma-derived; Pretreated with 125 uM GGACK (EGRCK); written here as one entry; also called mouse FX; source: bought: Haematologic Technologies, Inc. (MCX-5050), plasma-derived
Broadly, the koff is the first-order rate constant of dissociation. A lower koff goes with slow dissociation. As a reminder, the kon is the second-order rate constant of association. The low end stands for slow association, the high end for fast association. One may read the Kd as the concentration at which binding is half-saturated. Read a low Kd as a tighter complex. Turning to B1, in experiment [1], the koff was 0.00018 s⁻¹ and the kon is 238000 M⁻¹ s⁻¹. In experiment [2], the koff is 8.4e-05 s⁻¹ and the kon is 242000 M⁻¹ s⁻¹. For the same molecule, in experiment [3], the Kd turned out to be 0.32 nM, the koff came to 8.61e-05 s⁻¹ and the kon came to 266000 M⁻¹ s⁻¹.

B2: hexon of Ad5.5 (Ad5 vector, hexon HVR7 VINTDTL), on the virion (natural protein, human adenovirus type 5)
chain: ATPSMMPQWSYMHISGQDASEYLSPGLVQFARATETYFSLNNKFRNPTVAPTHDVTTDRSQRLTLRFIPVDREDTAYSYKARFTLAVGDNRVLDMASTYFDIRGVLDRGPTFKPYSGTAYNALAPKGAPNPCEWDEAATALEINLEEEDDDNEDEVDEQAEQQKTHVFGQAPYSGINITKEGIQIGVEGQTPKYADKTFQPEPQIGESQWYETEINHAAGRVLKKTTPMKPCYGSYAKPTNENGGQGILVKQQNGKLESQVEMQFFSTTEATAGNGDNLTPKVVLYSEDVDIETPDTHISYMPTIKEGNSRELMGQQSMPNRPNYIAFRDNFIGLMYYNSTGNMGVLAGQASQLNAVVDLQDRNTELSYQLLLDSIGDRTRYFSMWNQAVDSYDPDVRIIENHGTEDELPNYCFPLGGVINTDTLTKVKPKTGQENGWEKDATEFSDKNEIRVGNNFAMEINLNANLWRNFLYSNIALYLPDKLKYSPSNVKISDNPNTYDYMNKRVVAPGLVDCYINLGARWSLDYMDNVNPFNHHRNAGLRYRSMLLGNGRYVPFHIQVPQKFFAIKNLLLLPGSYTYEWNFRKDVNMVLQSSLGNDLRVDGASIKFDSICLYATFFPMAHNTASTLEAMLRNDTNDQSFNDYLSAANMLYPIPANATNVPISIPSRNWAAFRGWAFTRLKTKETPSLGSGYDPYYTYSGSIPYLDGTFYLNHTFKKVAITFDSSVSWPGNDRLLTPNEFEIKRSVDGEGYNVAQCNMTKDWFLVQMLANYNIGYQGFYIPESYKDRMYSFFRNFQPMSRQVVDDTKYKDYQQVGILHQHNNSGFVGYLAPTMREGQAYPANFPYPLIGKTAVDSITQKKFLCDRTLWRIPFSSNFMSMGALTDLGQNLLYANSAHALDMTFEVDPMDEPTLLYVLFEVFDVVRVHRPHRGVIETVYLRTPFSAGNATT
notes: hexon of human adenovirus type 5, whole as in the capsid of the virion; HVR7 segment changed; The whole virion was immobilised; source: 293 cells, virions purified by CsCl ultracentrifugation
The molecule B2 came in with a Kd in experiment [4] of 233 nM.

In experiment [5], B3 gave a Kd of 39 nM, a koff of 0.00321 s⁻¹ and a kon of 83500 M⁻¹ s⁻¹.

B4: bovine coagulation factor X (natural protein)
chain: ANSFLEEVKQGNLERECLEEACSLEEAREVFEDAEQTDEFWSKYKDGDQCEGHPCLNQGHCKDGIGDYTCTCAEGFEGKNCEFSTREICSLDNGGCDQFCREERSEVRCSCAHGYVLGDDSKSCVSTERFPCGKFTQGRSRRWAIHTSEDALDASELEHYDPADLSPTESSLDLLGLNRTEPSAGEDGSQVVRIVGGRDCAEGECPWQALLVNEENEGFCGGTILNEFYVLTAAHCLHQAKRFTVRVGDRNTEQEEGNEMAHEVEMTVKHSRFVKETYDFDIAVLRLKTPIRFRRNVAPACLPEKDWAEATLMTQKTGIVSGFGRTHEKGRLSSTLKMLEVPYVDRSTCKLSSSFTITPNMFCAGYDTQPEDACQGDSGGPHVTRFKDTYFVTGIVSWGEGCARKGKFGVYTKVSNFLKWIDKIMKARAGAAGSRGHSEAPATWTVPPPLPL
modifications: gamma-carboxylated glutamate residues in the Gla domain
notes: coagulation factor X, bovine, plasma-derived; Pretreated with 125 uM GGACK (EGRCK); written here as one entry; also called bovine FX; source: bought: Haematologic Technologies, Inc. (BCX-1050), plasma-derived
As to B4, the values for the koff in experiment [1], in experiment [2] and in experiment [3] were 0.0142 s⁻¹, 0.115 s⁻¹ and 0.0711 s⁻¹, respectively. In addition, the kon worked out at 194000 M⁻¹ s⁻¹ in experiment [1], 410000 M⁻¹ s⁻¹ in experiment [2] and 262000 M⁻¹ s⁻¹ in experiment [3]. In addition, the Kd is 280 nM in experiment [2] and 270 nM in experiment [3].

B5: mouse prothrombin (coagulation factor II) (natural protein)
chain: not shown
modifications: gamma-carboxylated glutamate residues in the Gla domain
notes: prothrombin (FII), mouse, plasma-derived; also called mouse FII
In experiment [1], B5 showed a Kd of 5.6 nM, a koff of 0.000393 s⁻¹ and a kon of 69700 M⁻¹ s⁻¹. In experiment [2], the Kd amounted to 2100 nM, the koff is 0.0518 s⁻¹ and the kon turned out to be 24500 M⁻¹ s⁻¹. In experiment [3], this molecule returned a Kd of 2000 nM, a koff of 0.0361 s⁻¹ and a kon of 18000 M⁻¹ s⁻¹.

In experiment [5], B6 came in with a Kd of 4.5 nM, a koff of 0.000393 s⁻¹ and a kon of 87400 M⁻¹ s⁻¹.

B7: bovine prothrombin (coagulation factor II) (natural protein)
chain: not shown
modifications: gamma-carboxylated glutamate residues in the Gla domain
notes: prothrombin (FII), bovine, plasma-derived; also called bovine FII; source: bought: Haematologic Technologies, Inc. (BCP-1010), plasma-derived
For B7, in experiment [1], binding was characterised by a dissociation constant (Kd) of 140 nM, the koff is 0.00531 s⁻¹ and the kon came out at 37800 M⁻¹ s⁻¹.

For the origin of these results see PMC9536601, “Binding of adenovirus species C hexon to prothrombin and the influence of hexon on vector properties in vitro and in vivo” (PLoS Pathogens, 2022).
